Source: US20070117966A1 (UNIVERSITY OF ROCHESTER, published 2007)
Like-named read-outs stand apart in the source and are kept apart here. No end group written: not given here.

What was measured:
purified αvβ3 integrin [1] = target: T1, purified αvβ3 integrin (human, UniProt P06756 31-1048; P05106 27-788, limits assumed); test: competition ELISA on αvβ3 coated wells; competitor: biotinylated FNfn10-3JCLI4 at 800 pM; no inhibition at the highest concentration
T1 construct: Bought purified integrin, coated on plates at 5 µg/ml; also called immobilized human αvβ3 integrin; CD51/CD61
T1 sequence (P06756 31-1048 limits assumed, form in doubt, chain 1 of 2): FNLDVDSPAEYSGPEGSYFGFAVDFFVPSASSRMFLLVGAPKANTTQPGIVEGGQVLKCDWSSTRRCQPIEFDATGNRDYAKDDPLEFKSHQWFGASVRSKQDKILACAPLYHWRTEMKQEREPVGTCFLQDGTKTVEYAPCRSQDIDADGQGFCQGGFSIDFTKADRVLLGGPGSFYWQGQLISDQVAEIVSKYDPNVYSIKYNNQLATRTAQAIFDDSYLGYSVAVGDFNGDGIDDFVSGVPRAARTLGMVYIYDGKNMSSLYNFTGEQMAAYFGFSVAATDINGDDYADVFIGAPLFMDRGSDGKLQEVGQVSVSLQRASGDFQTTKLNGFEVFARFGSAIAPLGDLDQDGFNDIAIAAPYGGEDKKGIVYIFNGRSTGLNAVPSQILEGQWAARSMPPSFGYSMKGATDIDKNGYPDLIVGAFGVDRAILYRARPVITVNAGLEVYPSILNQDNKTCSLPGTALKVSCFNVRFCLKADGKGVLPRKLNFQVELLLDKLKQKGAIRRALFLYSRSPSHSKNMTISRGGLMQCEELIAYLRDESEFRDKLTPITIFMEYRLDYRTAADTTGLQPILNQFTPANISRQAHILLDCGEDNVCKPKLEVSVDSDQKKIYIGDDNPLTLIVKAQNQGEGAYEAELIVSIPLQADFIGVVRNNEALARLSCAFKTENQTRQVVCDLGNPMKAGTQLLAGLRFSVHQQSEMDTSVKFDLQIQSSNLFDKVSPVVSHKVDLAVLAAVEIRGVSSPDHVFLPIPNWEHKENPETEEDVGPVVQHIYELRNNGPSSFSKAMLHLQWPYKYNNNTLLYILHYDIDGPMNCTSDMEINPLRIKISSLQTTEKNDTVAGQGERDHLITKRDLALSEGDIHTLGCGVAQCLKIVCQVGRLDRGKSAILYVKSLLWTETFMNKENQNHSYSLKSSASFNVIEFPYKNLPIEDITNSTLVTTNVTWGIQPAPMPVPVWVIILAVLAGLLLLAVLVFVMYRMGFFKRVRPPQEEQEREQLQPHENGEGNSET
T1 sequence (P05106 27-788 limits assumed, form in doubt, chain 2 of 2): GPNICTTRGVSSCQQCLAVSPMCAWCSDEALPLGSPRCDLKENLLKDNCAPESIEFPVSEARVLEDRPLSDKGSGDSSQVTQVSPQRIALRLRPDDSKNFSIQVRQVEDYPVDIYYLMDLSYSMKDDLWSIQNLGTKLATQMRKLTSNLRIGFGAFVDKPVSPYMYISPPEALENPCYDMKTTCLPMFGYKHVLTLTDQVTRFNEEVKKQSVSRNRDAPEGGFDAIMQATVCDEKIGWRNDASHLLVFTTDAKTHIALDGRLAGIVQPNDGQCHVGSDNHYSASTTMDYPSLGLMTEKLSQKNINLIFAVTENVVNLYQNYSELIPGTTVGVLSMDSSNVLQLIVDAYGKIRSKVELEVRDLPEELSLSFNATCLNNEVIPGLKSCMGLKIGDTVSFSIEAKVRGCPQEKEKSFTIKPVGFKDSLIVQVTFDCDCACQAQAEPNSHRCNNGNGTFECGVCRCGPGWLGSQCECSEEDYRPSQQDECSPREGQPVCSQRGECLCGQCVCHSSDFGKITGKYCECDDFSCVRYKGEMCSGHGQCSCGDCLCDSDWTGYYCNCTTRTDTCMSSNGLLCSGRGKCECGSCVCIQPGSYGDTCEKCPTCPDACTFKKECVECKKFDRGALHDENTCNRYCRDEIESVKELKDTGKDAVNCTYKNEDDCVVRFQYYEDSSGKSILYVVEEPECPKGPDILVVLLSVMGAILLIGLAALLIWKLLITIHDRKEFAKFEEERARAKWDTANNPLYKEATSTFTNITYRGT

purified αvβ3 integrin [2] = target: T1, purified αvβ3 integrin
[3] = target: αvβ3 integrin on K562-αvβ3 cells (human, UniProt P06756 31-1048; P05106 27-788); test: cell-based or functional assay
Sequence of αvβ3 integrin on K562-αvβ3 cells (P06756 31-1048, chain 1 of 2): as the sequence (P06756 31-1048 limits assumed, form in doubt, chain 1 of 2) above
Sequence of αvβ3 integrin on K562-αvβ3 cells (P05106 27-788, chain 2 of 2): as the sequence (P05106 27-788 limits assumed, form in doubt, chain 2 of 2) above

[4] = target: αIIbβ3 integrin on K562-αIIbβ3 cells (UniProt P08514 32-1039; P05106 27-788); test: cell-based or functional assay

Row | Binder | IC50 (purified αvβ3 integrin [1]) [nM] | IC50 (purified αvβ3 integrin [2]) [nM] | inhibition of adhesion of K562-αvβ3 cells to vitronectin, IC50 [3] [nM] | inhibition of adhesion of K562-αIIbβ3 cells to fibronectin, IC50 [4] [nM]
1 | GRGDSPK [GRGDSPK peptide] | > 80 |  |  | 
2 | QCESGPCCRNCKFLKEGTICKRARGDDMDDYCNGKTCDCPRNPHKGPAT (ligand, ends and bridges not checked; cysteine pairing not given here) [echistatin] |  | 0.93 | 5.9 | 10.2
